For the test, the target named is human MN protein, entire extra-cellular domain with a C-terminal histag, expressed in HKB-11 cells (human) (UniProt Q16790). Nature of the test: method not restated (Biacore by context).

Consider one substance from US20100129315A1.

As a reminder, the Kd is the equilibrium constant for the complex coming apart. Higher therefore signals weaker binding. As for “MN antibody G250, a humanized IgG1 antibody (Wilex)”, the dissociation constant Kd was determined as 5.3 nM.
